Measurements taken from the supplement of paper PMC12042874.
± gives the uncertainty stated by the source.

Assay: amyloid nucleation score (Sup35N fusion, yeast selection) (log enrichment); library NNK3; higher = more nucleation; inactive = no reads after selection
Procedure, shortened: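 Output and input plasmid inserts were sequenced by Illumina after psi-negative yeast carrying Sup35N fused to peptides of 20 random codons had been induced 24 hours with 100 μM copper sulfate and grown 7 days at 30°C on medium lacking adenine and uracil. The nucleation score is the DiMSum log enrichment of output over input reads, centred on the mode score of non-aggregating sequences. Sequences with under 100 input reads were excluded.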
For NAGHICFVVVTKWREFASVY, the amyloid nucleation score was “inactive”.
In the case of NAHCMVLMHRAKVWIFMINK, the amyloid nucleation score is reported as “inactive”.
For NAKPCSGPTMTGADEFPLCL, the amyloid nucleation score was “inactive”.
With NALILAT the amyloid nucleation score was “inactive”.
For NARGVKSDEILN, the amyloid nucleation score was “inactive”.
With NATSQLVVGAVQ the amyloid nucleation score was “inactive”.
With NCCQFPVDAS the amyloid nucleation score was “inactive”.
With NCDIPFFTRSEIVFLFVDFI the amyloid nucleation score was “inactive”.
With NCHAGPYEVYLVVGPELLLK the amyloid nucleation score was “inactive”.
In the case of NCPSWGGFGIATSGQR, the amyloid nucleation score is reported as “inactive”.
In the case of NCRRRKCVTGGGRS, the amyloid nucleation score is reported as 1.16 ± 0.17.
For NCRVMITVIYTICNVVFLSC, the amyloid nucleation score was “inactive”.
In the case of NCRYIVAPMKQLYMGIEMVL, the amyloid nucleation score is reported as “inactive”.
For NCYFIQGWSSLMYSKGFNKC, the amyloid nucleation score was “inactive”.
In the case of NDFCLIYYICGS, the amyloid nucleation score is reported as 0.743 ± 0.17.
In the case of NDFSPVRWTVLDTDDPK, the amyloid nucleation score is reported as “inactive”.
In the case of NDHSEGTCSIRERQTSRWML, the amyloid nucleation score is reported as “inactive”.
In the case of NDLSDSMRVR, the amyloid nucleation score is reported as “inactive”.
For NDRIYCGGDYPTNH, the amyloid nucleation score was “inactive”.
In the case of NDYGDGVSHLMGTGTPTSLW, the amyloid nucleation score is reported as “inactive”.
For NECLVDTA, the amyloid nucleation score was “inactive”.
For NEIFIRLLSNMKEPR, the amyloid nucleation score was 1.31 ± 0.14.
NENHGCYMGRVFQCGIYEYV showed an amyloid nucleation score of 1.44 ± 0.13.
With NEVMGFFNDQWRMIWWGYPR the amyloid nucleation score was “inactive”.
With NFCNLLFR the amyloid nucleation score was “inactive”.
With NFEIFSRVQWDLC the amyloid nucleation score was “inactive”.
With NFFMGLLSSRSMGLTWYWCM the amyloid nucleation score was “inactive”.
For NFIIWWVLDISVERIRINEV, the amyloid nucleation score was “inactive”.
Substance NFITRWCGFSGSA has an amyloid nucleation score of 0.608 ± 0.2.
With NFMGVYLVWNFIVVFKVHYV the amyloid nucleation score was “inactive”.
NFMPNKYCNVELVFWGDLGI showed an amyloid nucleation score of 1.59 ± 0.12.
For NFRLYLLNCN, the amyloid nucleation score was “inactive”.
NFRPEKHINLMVCKSLPFV gave an amyloid nucleation score of 0.705 ± 0.21.
In the case of NFRSSI, the amyloid nucleation score is reported as “inactive”.
NFSIRCTWLVVNNAVDLRDN showed an amyloid nucleation score of 2.94 ± 0.049.
In the case of NFVMLEKPDRTDLPGCTKQR, the amyloid nucleation score is reported as “inactive”.
For NGDGLVLYIRLLRLRRHVDT, the amyloid nucleation score was “inactive”.
For NGFCSASICREDCEMWNMQS, the amyloid nucleation score was “inactive”.
With NGGVLAGTMG the amyloid nucleation score was “inactive”.
In the case of NGKVLM, the amyloid nucleation score is reported as “inactive”.
In the case of NGNFSVRFSVKS, the amyloid nucleation score is reported as “inactive”.
For NGSHDRGVPAELSAFKG, the amyloid nucleation score was “inactive”.
With NGSLREKSGSVCKRIL the amyloid nucleation score was “inactive”.
NGSNFFDCSQFLCSFGGDVV showed an amyloid nucleation score of 2.45 ± 0.072.
For NGVMGRGLYTKSQRSYCDNN, the amyloid nucleation score was “inactive”.
With NGYLACSPFS the amyloid nucleation score was “inactive”.
With NHGLLTKGMISAFRII the amyloid nucleation score was “inactive”.
Work on NHLGVRWVLSMNMTFPHHNL yielded an amyloid nucleation score of 1.29 ± 0.089.
In the case of NHYATFGCSVTFAIVNWSRF, the amyloid nucleation score is reported as 1.86 ± 0.057.
In the case of NHYCDFAVWSTFNLTLHHSL, the amyloid nucleation score is reported as “inactive”.
In the case of NICCHISKSRPYQVYFSLQL, the amyloid nucleation score is reported as “inactive”.
With NICLKNSVS the amyloid nucleation score was “inactive”.
With NIIFRTW the amyloid nucleation score was “inactive”.
In the case of NIISNDLSEASIYNGFVCNR, the amyloid nucleation score is reported as “inactive”.
Substance NIMVDHS has an amyloid nucleation score of -0.476 ± 1.4.
With NIMVVYPFFYGFKHNWLESI the amyloid nucleation score was “inactive”.
NINYTYLESVLIMGYMFREL gave an amyloid nucleation score of 2.21 ± 0.095.
In the case of NIPPLTLLAVVGS, the amyloid nucleation score is reported as “inactive”.
In the case of NIRKPDMYLITVCWESSQAL, the amyloid nucleation score is reported as “inactive”.
In the case of NISMVTSEDYMRDLLIFSTG, the amyloid nucleation score is reported as “inactive”.
With NITPRQMWVRWRQCMMGTGL the amyloid nucleation score was “inactive”.
For NKHDHLFRKFFLCISLGLAG, the amyloid nucleation score was “inactive”.
With NKNSVFSLSYPYYVTCVGTY the amyloid nucleation score was “inactive”.
In the case of NKRGNVASLLSLACKYGAEQ, the amyloid nucleation score is reported as “inactive”.
For NKVCLDTSAVYYSFRDKDG, the amyloid nucleation score was “inactive”.
